Assay results reported in paper PMC10531346, “Structural Similarities and Overlapping Activities among Dihydroflavonol 4-Reductase, Flavanone 4-Reductase, and Anthocyanidin Reductase Offer Metabolic Flexibility in the Flavonoid Pathway” (International Journal of Molecular Sciences, 2023).
Read-outs that look alike come from different tables or passages of the source.

How the values were obtained:
SbFNR1 [1] = molecular target: T1, SbFNR1 (Sorghum bicolor, UniProt C5YGL7); test: SbFNR1 activity assay (dihydroflavonols, flavanones, anthocyanidins); assay type: biochemical; conditions: anthocyanidin reduction
SbFNR2 = SbFNR2 activity assay (dihydroflavonols, flavanones, anthocyanidins); assay type: biochemical, Sorghum bicolor; conditions: anthocyanidin reduction
PvDFRa [2] = molecular target: T2, PvDFRa (Panicum virgatum, UniProt A0A8T0SQV2); test: PvDFRa activity against anthocyanidins (ANR activity); assay type: biochemical; conditions: anthocyanidin reduction
Method: (§1) To measure any overlapping specificity among FNR, DFR, and ANR for anthocyanidins, their activity against cyanidin, pelargonidin, and delphinidin were assayed.
(§2) LC-MS was used to analyze the various flavonoids using a Waters Xevo TQ-MS mass spectrometer interfaced with a Waters Acquity UPLC. […] The chromatographic conditions used were based on. The mobile phase used was a binary gradient of water with 0.1% (v/v) formic acid (Solvent A) and methanol with 0.1% formic acid (Solvent B). The solvent flow rate was 0.2 mL min^-1. and the initial solvent composition was 20% B/80% A and was constant for the first minute following sample injection. Gradient elution was accomplished by increasing the ratio of solvent B to solvent A from 20:80 to 65:35 over 10 min. using a linear gradient, and then increased to 100:0 over the next 4 min. The composition was maintained at 100% B for 5 min., returned to 80%A/20%B over the next 3 min., and held at that ratio for the next 3 min. […]
(§3) Appropriate daughter ions to be used for multiple reaction monitoring (MRM) of (-)-epicatechin were identified by infusing standard and recording spectra. The optimum cone voltage and collision energy of epicatechin were also determined in these infusion experiments. […]

SbDFR3 = SbDFR3 (Sorghum bicolor, UniProt C5XVF8); test: SbDFR3 activity against anthocyanidins (ANR activity); assay type: biochemical; conditions: anthocyanidin reduction
Method: as §1, §2, §3

PvDFRa [3] = molecular target: T2, PvDFRa; assay type: biochemical
Method: The referenced Vmax and Km values were used to make a nonlinear regression. […] Five µL of the reaction was injected into a reversed-phase HPLC column XBridge Peptide BEH C18 (Waters, Milford, MA, USA). Acetonitrile:water was used as the mobile phase, using a gradient in the concentration of acetonitrile from 5% (v/v) to 100%.

PvDFRa WT = PvDFRa WT (Panicum virgatum, UniProt A0A8T0SQV2); test: Enzyme kinetic assay, wild-type PvDFRa; assay type: biochemical; conditions: NADH utilized instead of NADPH
Method: Kinetic Assays of PvDFRa, SbDFR3, mutant PvDFRa, and SbFNRs: DFR was purified to the same purity as used in crystallization. Enzymatic assay followed the methodology previously reported with small changes. A solution of 0.1 M potassium phosphate at pH 7.0 was utilized, and substrate concentration was varied from 5 µM to 800 µM. The reaction was initiated with 0.05 mg enzyme in a total reaction volume of 200 µL. […] The reaction proceeded for 15 min. at 25 °C and was terminated by the addition of 600 µL 95:5 (v/v) n-butanol:HCl. […] The reactions were centrifuged for 15 min. at 14,000× g and the supernatant was used to determine product concentrations with a GENESYS™ 10S UV-Vis Spectrophotometer (Thermo Scientific, Waltham, MA, USA). The absorbances of cyanidin delphinidin and pelargonidin were measured at 550, 550, and 528 nm, respectively. The concentrations were determined based on calibrations with reference compounds (Figure S12). […] Data analysis was conducted utilizing GraphPad Prism 8.0.2 using linear regression to model the appropriate model. Error in each data point is shown utilizing the standard deviation.

PvDFRa [4] = molecular target: T2, PvDFRa; test: Isothermal titration calorimetry, PvDFRa; assay type: binding; conditions: ITC
Method: In order to obtain thermodynamic parameters for the association, isothermal titration calorimetry (ITC) for PvDFRa was performed (Figure S8, Table 2).
Isothermal Titration Calorimetry: Purified PvDFR was dialyzed to a buffer containing 50 mM Bis-Tris, 50 mM Tricine (pH 6.5), 200 mM NaCl and 2.5% (v/v) glycerol. Substrates were dissolved in the same buffer used for enzyme dialysis. Analysis was conducted utilizing a Microcal ITC 200 (Malvern). […] A total of 22 injections were made, each with a volume of 2 uL. Data analysis was conducted utilizing Origin Software 7 and modeled to the appropriate nonlinear regression.

SbFNR1 [5] = molecular target: T1, SbFNR1; test: Isothermal titration calorimetry, SbFNR1; assay type: binding; conditions: ITC
[6] = system: O=C1c2c(O)cc(O)cc2OC(c2ccc(O)c(O)c2)[C@H]1O; test: purified protein, by the assay type; conditions: other: NADPH 2 mM
[7] = system: O=C1c2c(O)cc(O)cc2O[C@H](c2cc(O)c(O)c(O)c2)[C@H]1O; test: purified protein, by the assay type; conditions: other: NADPH 2 mM
[8] = system: O=C1c2c(O)cc(O)cc2O[C@H](c2ccc(O)cc2)[C@H]1O; test: purified protein, by the assay type; conditions: other: NADPH 2 mM
[9] = system: O=C1C[C@@H](c2ccc(O)cc2)Oc2cc(O)cc(O)c21; test: purified protein, by the assay type; conditions: other: NADPH 2 mM

In the case of `Oc1ccc(-c2[o+]c3cc(O)cc(O)c3cc2O)cc1` [pelargonidin], the “efficiency relative to the activity of SbANR” value (SbFNR1 [1]) is reported as 2.1%, the “efficiency relative to the activity of SbANR” value (SbFNR2) is reported as 42.7% and the “activity as % of the activity of SbANR” value (PvDFRa [2]) is reported as 13.8%. The “activity as % of the activity of SbANR” value (SbDFR3) was 2.3%.

In the case of `O=c1c(O)c(-c2ccc(O)c(O)c2)oc2cc(O)cc(O)c12` [quercetin], the “substrate of PvDFRa or not” value (PvDFRa [3]; 500 µM quercetin, 2 mM NADPH, 30 min, HPLC) is reported as “not a substrate”, the “type of inhibition of PvDFRa” value (PvDFRa [3]; DHM as substrate) is reported as “noncompetitive inhibition” and the Vmax (PvDFRa [3]; DHM as substrate, 75 μM quercetin) is reported as 4.193 min⁻¹. For the same molecule, the Vmax (PvDFRa [3]; DHM as substrate, 150 μM quercetin) was 3.545 min⁻¹.

In the case of NADH, the “enzyme efficiency with NADH relative to NADPH” value (PvDFRa WT) is reported as 60.55%.

With NADP^+ the “NADP^+-binding affinity relative to affinity for DHQ” value (PvDFRa [4]) was “roughly 100 times”, the “∆H” value (PvDFRa [4]; 298 K) was -9.41 ± 0.15 kcal/mol and the “∆S” value (PvDFRa [4]; 298 K) was −0.226 Cal mol^−1 K^−1. The “∆H” value (SbFNR1 [5]) was -1.12 ± 0.72 kcal/mol and the “∆S” value (SbFNR1 [5]) was −15.4 Cal mol^−1 K^−1.

PvDFRa Q242A (Panicum virgatum; Q242A) gave a Km ([6]; pH 7.0) of 156.8 ± 121.41 µM, a kcat ([6]; pH 7.0) of 0.0428 s⁻¹ and a kcat/Km ([6]; pH 7.0) of 273 M⁻¹ s⁻¹. The Km ([7]; pH 7.0) was 119.2 ± 87.86 µM, the kcat ([7]; pH 7.0) was 0.0379 s⁻¹ and the kcat/Km ([7]; pH 7.0) was 318 M⁻¹ s⁻¹. It also gave a Km ([8]; pH 7.0) of 74.59 ± 62.70 µM, a kcat ([8]; pH 7.0) of 0.00783 s⁻¹ and a kcat/Km ([8]; pH 7.0) of 105 M⁻¹ s⁻¹.

With PvDFRa T143S (Panicum virgatum; T143S) the Km ([6]; pH 7.0) was 19.04 ± 11.21 µM, the kcat ([6]; pH 7.0) was 0.0293 s⁻¹ and the kcat/Km ([6]; pH 7.0) was 1540 M⁻¹ s⁻¹. For the same molecule, the Km ([7]; pH 7.0) was 7.409 ± 0.2465 µM, the kcat ([7]; pH 7.0) was 0.0176 s⁻¹ and the kcat/Km ([7]; pH 7.0) was 2380 M⁻¹ s⁻¹. The Km ([8]; pH 7.0) was 137.7 ± 36.00 µM, the kcat ([8]; pH 7.0) was 0.00956 s⁻¹ and the kcat/Km ([8]; pH 7.0) was 69.3 M⁻¹ s⁻¹.

With PvDFRa WT (Panicum virgatum) the Km ([9]; pH 7.0, 25 °C, 25.0 °C) was 407.6 ± 223.6 µM, the kcat ([9]; pH 7.0, 25 °C, 25.0 °C) was 0.0592 s⁻¹ and the kcat/Km ([9]; pH 7.0, 25 °C, 25.0 °C) was 145 M⁻¹ s⁻¹. It also gave a Km ([6]; pH 7.0, 25 °C, 25.0 °C) of 128.6 ± 14.3 µM, a kcat ([6]; pH 7.0, 25 °C, 25.0 °C) of 0.0559 s⁻¹ and a kcat/Km ([6]; pH 7.0, 25 °C, 25.0 °C) of 435 M⁻¹ s⁻¹. For the same molecule, the Km ([7]; pH 7.0, 25 °C, 25.0 °C) was 150.0 ± 56.9 µM, the kcat ([7]; pH 7.0, 25 °C, 25.0 °C) was 0.0377 s⁻¹ and the kcat/Km ([7]; pH 7.0, 25 °C, 25.0 °C) was 251 M⁻¹ s⁻¹. It also gave a kcat ([8]; pH 7.0, 25 °C, 25.0 °C) of 0.0121 s⁻¹ and a kcat/Km ([8]; pH 7.0, 25 °C, 25.0 °C) of 63.2 M⁻¹ s⁻¹.

Work on SbDFR3 (Sorghum bicolor) yielded a Km ([9]; pH 7.0) of 118.2 ± 14.92 µM, a kcat ([9]; pH 7.0) of 0.0347 ± 0.00145 s⁻¹ and a kcat/Km ([9]; pH 7.0) of 294 M⁻¹ s⁻¹. For the same molecule, the Km ([6]; pH 7.0) was 166.4 ± 28.8 µM, the kcat ([6]; pH 7.0) was 0.0633 s⁻¹ and the kcat/Km ([6]; pH 7.0) was 380 M⁻¹ s⁻¹. It also gave a Km ([7]; pH 7.0) of 118.5 ± 0.2885 µM, a kcat ([7]; pH 7.0) of 0.0773 s⁻¹ and a kcat/Km ([7]; pH 7.0) of 653 M⁻¹ s⁻¹.
